From PMC9482650, “Quantitative fragmentomics allow affinity mapping of interactomes” (Nature Communications, 2022)

Experiments:
Test in all cases: holdup assay
Parameters in all cases: key: below the threshold = too weak to quantify, mostly under pKd 3.1 to 4
Settings in all cases: plain residues with an end cap or a label only (N-terminal biotin on a linker: ttds)
CNKSR3, Q6P9H4 = target: CNKSR3, Q6P9H4
DLG5_2, Q8TDM6 = target: DLG5_2, Q8TDM6
DVL1, O14640 = target: T1, DVL1, O14640
T1 sequence (O14640 246-333, limits assumed, looked up): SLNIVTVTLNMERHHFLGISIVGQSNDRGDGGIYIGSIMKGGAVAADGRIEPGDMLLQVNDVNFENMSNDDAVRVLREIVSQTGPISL

IL16_2, Q14005 = target: IL16_2, Q14005
Inadl_7, Q8NI35 = target: Inadl_7, Q8NI35
MAGI1_5, Q96QZ7 = target: MAGI1_5, Q96QZ7
MAGI1_6, Q96QZ7 = target: MAGI1_6, Q96QZ7
MAGI3_4, Q5TCQ9 = target: MAGI3_4, Q5TCQ9
MAGI3_5, Q5TCQ9 = target: MAGI3_5, Q5TCQ9
MAGI3_6, Q5TCQ9 = target: MAGI3_6, Q5TCQ9
MPDZ_11, O75970 = target: T2, MPDZ_11, O75970
T2 sequence (O75970 1720-1817, limits assumed, looked up): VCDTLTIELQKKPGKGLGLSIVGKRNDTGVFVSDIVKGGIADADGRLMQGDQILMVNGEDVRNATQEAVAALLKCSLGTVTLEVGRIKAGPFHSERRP

MPDZ_13, O75970 = target: T3, MPDZ_13, O75970
T3 sequence (O75970 1982-2070, limits assumed, looked up): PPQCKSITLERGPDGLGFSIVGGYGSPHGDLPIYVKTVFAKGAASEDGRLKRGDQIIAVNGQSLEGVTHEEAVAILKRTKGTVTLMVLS

MPDZ_6, O75970 = target: T4, MPDZ_6, O75970
T4 sequence (O75970 1003-1099, limits assumed, looked up): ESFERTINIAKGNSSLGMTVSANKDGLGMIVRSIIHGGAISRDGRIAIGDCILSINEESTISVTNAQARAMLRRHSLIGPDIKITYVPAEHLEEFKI

NHERF3_2, Q5T2W1 = target: T5, NHERF3_2, Q5T2W1
T5 sequence (Q5T2W1 129-225, limits assumed, looked up): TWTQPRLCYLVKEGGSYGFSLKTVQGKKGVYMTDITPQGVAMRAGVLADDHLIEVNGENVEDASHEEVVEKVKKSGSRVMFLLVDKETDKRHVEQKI

PARD3B_3, Q8TEW8 = target: PARD3B_3, Q8TEW8
PARD3_1, Q8TEW0 = target: PARD3_1, Q8TEW0
PDZD11, Q5EBL8 = target: T6, PDZD11, Q5EBL8
T6 sequence (Q5EBL8 42-139, limits assumed, looked up): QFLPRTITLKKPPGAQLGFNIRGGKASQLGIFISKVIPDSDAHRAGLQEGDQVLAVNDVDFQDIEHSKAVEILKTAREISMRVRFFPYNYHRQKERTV

PDZD2_5, O15018 = target: T7, PDZD2_5, O15018
T7 sequence (O15018 2617-2716, limits assumed, looked up): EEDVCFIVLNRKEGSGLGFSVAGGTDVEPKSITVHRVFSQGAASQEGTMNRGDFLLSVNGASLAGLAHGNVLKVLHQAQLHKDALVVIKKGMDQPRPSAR

PDZD7_1, Q9H5P4 = target: T8, PDZD7_1, Q9H5P4
T8 sequence (Q9H5P4 81-178, limits assumed, looked up): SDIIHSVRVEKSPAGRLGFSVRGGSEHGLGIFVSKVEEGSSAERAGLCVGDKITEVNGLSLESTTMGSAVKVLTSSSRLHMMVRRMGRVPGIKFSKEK

PREX2_2, Q70Z35 = target: T9, PREX2_2, Q70Z35
T9 sequence (Q70Z35 672-764, limits assumed, looked up): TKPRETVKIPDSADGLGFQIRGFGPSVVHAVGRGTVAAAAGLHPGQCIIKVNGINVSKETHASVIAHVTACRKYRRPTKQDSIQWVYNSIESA

RGS3, P49796-9 = target: RGS3, P49796-9
RIMS1, Q86UR5 = target: RIMS1, Q86UR5
SHROOM4, Q9ULL8 = target: T10, SHROOM4, Q9ULL8
T10 sequence (Q9ULL8 5-102, limits assumed, looked up): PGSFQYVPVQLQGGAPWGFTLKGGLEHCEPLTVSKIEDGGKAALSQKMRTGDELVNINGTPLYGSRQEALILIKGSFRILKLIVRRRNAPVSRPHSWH

TJP1_1, Q07157 = target: TJP1_1, Q07157
USH1C_1, Q9Y6N9 = target: T11, USH1C_1, Q9Y6N9
T11 sequence (Q9Y6N9 82-179, limits assumed, looked up): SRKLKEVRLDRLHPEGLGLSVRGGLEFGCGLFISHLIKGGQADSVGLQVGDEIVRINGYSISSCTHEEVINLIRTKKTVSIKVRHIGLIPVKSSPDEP

USH1C_2, Q9Y6N9 = target: T12, USH1C_2, Q9Y6N9
T12 sequence (Q9Y6N9 206-303, limits assumed, looked up): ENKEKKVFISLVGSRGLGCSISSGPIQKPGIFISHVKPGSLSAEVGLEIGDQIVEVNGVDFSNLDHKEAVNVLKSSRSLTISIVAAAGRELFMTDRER

Chain of IL16_2, Q14005 (Q14005 350-450): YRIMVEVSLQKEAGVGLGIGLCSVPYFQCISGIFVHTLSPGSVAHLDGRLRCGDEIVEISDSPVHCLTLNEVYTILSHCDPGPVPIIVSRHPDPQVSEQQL
Chain of RIMS1, Q86UR5 (Q86UR5 584-692): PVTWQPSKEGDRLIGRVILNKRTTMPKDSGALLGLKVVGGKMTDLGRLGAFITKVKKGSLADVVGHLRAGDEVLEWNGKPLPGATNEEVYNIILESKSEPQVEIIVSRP
Chain of DLG5_2, Q8TDM6 (Q8TDM6 714-800): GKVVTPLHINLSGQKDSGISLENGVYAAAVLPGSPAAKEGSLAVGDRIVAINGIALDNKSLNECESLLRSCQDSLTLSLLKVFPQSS
Chain of MAGI3_6, Q5TCQ9 (Q5TCQ9 1014-1103): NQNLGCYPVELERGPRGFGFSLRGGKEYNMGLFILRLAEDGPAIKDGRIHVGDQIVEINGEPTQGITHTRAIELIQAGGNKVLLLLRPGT
Chain of MAGI1_6, Q96QZ7 (Q96QZ7 1146-1238): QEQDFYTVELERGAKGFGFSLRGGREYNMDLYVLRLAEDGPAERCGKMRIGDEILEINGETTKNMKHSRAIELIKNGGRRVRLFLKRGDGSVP
Chain of RGS3, P49796-9 (P49796 other isoform, or with tags, fused parts or gaps): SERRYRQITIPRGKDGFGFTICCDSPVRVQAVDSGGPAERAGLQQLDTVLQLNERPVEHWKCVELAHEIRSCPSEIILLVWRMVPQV
Chain of MAGI1_5, Q96QZ7 (Q96QZ7 986-1098): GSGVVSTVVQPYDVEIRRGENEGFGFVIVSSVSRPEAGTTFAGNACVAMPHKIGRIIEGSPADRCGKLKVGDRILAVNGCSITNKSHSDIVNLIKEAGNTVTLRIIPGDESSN
Chain of Inadl_7, Q8NI35 (Q8NI35 1219-1332): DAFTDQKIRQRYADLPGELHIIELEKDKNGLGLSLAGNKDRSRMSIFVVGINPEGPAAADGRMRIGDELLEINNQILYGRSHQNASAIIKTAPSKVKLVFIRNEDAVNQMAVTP
Chain of MAGI3_5, Q5TCQ9 (Q5TCQ9 847-941): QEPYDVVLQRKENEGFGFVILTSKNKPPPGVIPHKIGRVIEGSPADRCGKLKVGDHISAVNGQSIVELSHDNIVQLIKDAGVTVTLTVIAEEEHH
Chain of CNKSR3, Q6P9H4 (Q6P9H4 203-303): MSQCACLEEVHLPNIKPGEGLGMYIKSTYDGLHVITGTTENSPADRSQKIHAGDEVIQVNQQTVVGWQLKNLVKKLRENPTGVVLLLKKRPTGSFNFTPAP
Chain of PARD3B_3, Q8TEW8 (Q8TEW8 490-594): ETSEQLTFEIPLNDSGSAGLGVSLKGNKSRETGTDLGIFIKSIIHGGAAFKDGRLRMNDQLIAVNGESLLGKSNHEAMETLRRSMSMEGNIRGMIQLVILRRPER
Chain of MAGI3_4, Q5TCQ9 (Q5TCQ9 716-815): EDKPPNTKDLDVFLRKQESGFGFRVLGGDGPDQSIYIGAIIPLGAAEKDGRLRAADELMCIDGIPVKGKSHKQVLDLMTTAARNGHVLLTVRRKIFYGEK
Chain of TJP1_1, Q07157 (Q07157 18-120): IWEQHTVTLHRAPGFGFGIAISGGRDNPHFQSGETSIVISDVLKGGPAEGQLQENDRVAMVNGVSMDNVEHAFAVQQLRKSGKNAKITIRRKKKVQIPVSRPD
Chain of PARD3_1, Q8TEW0 (Q8TEW0 264-372): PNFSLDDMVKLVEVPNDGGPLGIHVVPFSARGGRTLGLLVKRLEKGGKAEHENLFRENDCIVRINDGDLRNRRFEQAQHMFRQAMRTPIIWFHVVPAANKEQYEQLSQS

B1: MAP2K2, P36507 (peptide)
chain: QPGTPTRTAV
CNKSR3, Q6P9H4
  pKd: 4.05
DLG5_2, Q8TDM6
  pKd: below the threshold
DVL1, O14640
  pKd: below the threshold
IL16_2, Q14005
  pKd: below the threshold
Inadl_7, Q8NI35
  pKd: below the threshold
MAGI1_5, Q96QZ7
  pKd: below the threshold
MAGI1_6, Q96QZ7
  pKd: below the threshold
MAGI3_4, Q5TCQ9
  pKd: below the threshold
MAGI3_5, Q5TCQ9
  pKd: below the threshold
MAGI3_6, Q5TCQ9
  pKd: below the threshold
MPDZ_11, O75970
  pKd: below the threshold
MPDZ_13, O75970
  pKd: below the threshold
MPDZ_6, O75970
  pKd: below the threshold
NHERF3_2, Q5T2W1
  pKd: below the threshold
PARD3B_3, Q8TEW8
  pKd: below the threshold
PARD3_1, Q8TEW0
  pKd: below the threshold
PDZD11, Q5EBL8
  pKd: below the threshold
PDZD2_5, O15018
  pKd: below the threshold
PDZD7_1, Q9H5P4
  pKd: below the threshold
PREX2_2, Q70Z35
  pKd: below the threshold
RGS3, P49796-9
  pKd: below the threshold
RIMS1, Q86UR5
  pKd: below the threshold
SHROOM4, Q9ULL8
  pKd: below the threshold
TJP1_1, Q07157
  pKd: below the threshold
USH1C_1, Q9Y6N9
  pKd: below the threshold
USH1C_2, Q9Y6N9
  pKd: below the threshold

B2: PBK, Q96KB5 (peptide)
chain: HIVEALETDV
CNKSR3, Q6P9H4
  pKd: below the threshold
DLG5_2, Q8TDM6
  pKd: below the threshold
DVL1, O14640
  pKd: below the threshold
IL16_2, Q14005
  pKd: below the threshold
Inadl_7, Q8NI35
  pKd: 4.4
MAGI1_5, Q96QZ7
  pKd: below the threshold
MAGI1_6, Q96QZ7
  pKd: 4.91
MAGI3_4, Q5TCQ9
  pKd: below the threshold
MAGI3_5, Q5TCQ9
  pKd: below the threshold
MAGI3_6, Q5TCQ9
  pKd: 4.62
MPDZ_11, O75970
  pKd: below the threshold
MPDZ_13, O75970
  pKd: below the threshold
MPDZ_6, O75970
  pKd: below the threshold
NHERF3_2, Q5T2W1
  pKd: below the threshold
PARD3B_3, Q8TEW8
  pKd: below the threshold
PARD3_1, Q8TEW0
  pKd: below the threshold
PDZD11, Q5EBL8
  pKd: below the threshold
PDZD2_5, O15018
  pKd: below the threshold
PDZD7_1, Q9H5P4
  pKd: below the threshold
PREX2_2, Q70Z35
  pKd: below the threshold
RGS3, P49796-9
  pKd: below the threshold
RIMS1, Q86UR5
  pKd: below the threshold
SHROOM4, Q9ULL8
  pKd: below the threshold
TJP1_1, Q07157
  pKd: below the threshold
USH1C_1, Q9Y6N9
  pKd: below the threshold
USH1C_2, Q9Y6N9
  pKd: below the threshold

B3: SLCO1C1, Q9NYB5 (peptide)
chain: NYWPGKETQL
CNKSR3, Q6P9H4
  pKd: below the threshold
DLG5_2, Q8TDM6
  pKd: below the threshold
DVL1, O14640
  pKd: below the threshold
IL16_2, Q14005
  pKd: below the threshold
Inadl_7, Q8NI35
  pKd: below the threshold
MAGI1_5, Q96QZ7
  pKd: 4.47
MAGI1_6, Q96QZ7
  pKd: below the threshold
MAGI3_4, Q5TCQ9
  pKd: below the threshold
MAGI3_5, Q5TCQ9
  pKd: below the threshold
MAGI3_6, Q5TCQ9
  pKd: 4.36
MPDZ_11, O75970
  pKd: below the threshold
MPDZ_13, O75970
  pKd: below the threshold
MPDZ_6, O75970
  pKd: below the threshold
NHERF3_2, Q5T2W1
  pKd: below the threshold
PARD3B_3, Q8TEW8
  pKd: below the threshold
PARD3_1, Q8TEW0
  pKd: below the threshold
PDZD11, Q5EBL8
  pKd: below the threshold
PDZD2_5, O15018
  pKd: below the threshold
PDZD7_1, Q9H5P4
  pKd: below the threshold
PREX2_2, Q70Z35
  pKd: below the threshold
RGS3, P49796-9
  pKd: below the threshold
RIMS1, Q86UR5
  pKd: below the threshold
SHROOM4, Q9ULL8
  pKd: below the threshold
TJP1_1, Q07157
  pKd: below the threshold
USH1C_1, Q9Y6N9
  pKd: below the threshold
USH1C_2, Q9Y6N9
  pKd: below the threshold

B4: HTLV1-TAX1, P03409 (peptide)
chain: SEKHFRETEV
CNKSR3, Q6P9H4
  pKd: below the threshold
DLG5_2, Q8TDM6
  pKd: 5.06
DVL1, O14640
  pKd: below the threshold
IL16_2, Q14005
  pKd: below the threshold
Inadl_7, Q8NI35
  pKd: below the threshold
MAGI1_5, Q96QZ7
  pKd: 5.22
MAGI1_6, Q96QZ7
  pKd: 4.41
MAGI3_4, Q5TCQ9
  pKd: 3.79
MAGI3_5, Q5TCQ9
  pKd: 4.86
MAGI3_6, Q5TCQ9
  pKd: 4.54
MPDZ_11, O75970
  pKd: 4.25
MPDZ_13, O75970
  pKd: 4.77
MPDZ_6, O75970
  pKd: below the threshold
NHERF3_2, Q5T2W1
  pKd: below the threshold
PARD3B_3, Q8TEW8
  pKd: below the threshold
PARD3_1, Q8TEW0
  pKd: below the threshold
PDZD11, Q5EBL8
  pKd: below the threshold
PDZD2_5, O15018
  pKd: 4.16
PDZD7_1, Q9H5P4
  pKd: 3.85
PREX2_2, Q70Z35
  pKd: below the threshold
RGS3, P49796-9
  pKd: below the threshold
RIMS1, Q86UR5
  pKd: below the threshold
SHROOM4, Q9ULL8
  pKd: below the threshold
TJP1_1, Q07157
  pKd: below the threshold
USH1C_1, Q9Y6N9
  pKd: below the threshold
USH1C_2, Q9Y6N9
  pKd: below the threshold
